# According to paper PMC11749100, “Blockade of Arf1-mediated lipid metabolism in cancers promotes tumor infiltration of cytotoxic T cells via the LPE-PPARγ-NF-κB-CCL5 pathway”:
# B1: CCL5 promoter probe (dsDNA)
# DNA 1: GTCTTTTGTGGAAACTCCCCAAG
# DNA 2: CTTGGGGAGTTTCCACAAAAGAC
# What was measured:
# [1] = molecular target: PPARγ (mouse, UniProt P37238 1-505); assay: EMSA; Beyotime GS009 EMSA kit; 1 uL protein + 2 uL DNA, 20 min at room temperature; 4% non-denaturing PAGE; buffer, salt and pH not stated; conditions: protein: recombinant; blunt
# [2] = molecular target: p65 (NF-kB) (UniProt Q04207 1-549); assay: as above; conditions: protein: recombinant; tags: His (pET-21b(+)); blunt
# p65 (NF-kB), sequence (Q04207 whole entry): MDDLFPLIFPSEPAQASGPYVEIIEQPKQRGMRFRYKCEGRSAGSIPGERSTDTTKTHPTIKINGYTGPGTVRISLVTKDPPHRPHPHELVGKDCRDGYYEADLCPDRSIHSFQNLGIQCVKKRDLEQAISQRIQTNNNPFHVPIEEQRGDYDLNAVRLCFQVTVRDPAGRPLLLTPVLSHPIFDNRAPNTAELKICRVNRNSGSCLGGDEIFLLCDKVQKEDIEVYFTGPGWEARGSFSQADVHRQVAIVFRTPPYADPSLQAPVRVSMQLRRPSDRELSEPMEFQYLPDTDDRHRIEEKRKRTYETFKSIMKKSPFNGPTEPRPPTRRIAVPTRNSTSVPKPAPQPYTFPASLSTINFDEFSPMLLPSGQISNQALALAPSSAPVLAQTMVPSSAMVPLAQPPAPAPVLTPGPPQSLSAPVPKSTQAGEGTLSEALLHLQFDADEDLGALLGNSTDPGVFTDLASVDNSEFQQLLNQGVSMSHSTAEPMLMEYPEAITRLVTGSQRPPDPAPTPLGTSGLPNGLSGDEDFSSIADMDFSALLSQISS
binder,measurement,setting,value
B1,binding result,[1],no binding
same,binding result,[2],binds
